pKd: −log10 of the molar value.
What was measured:
[1] = system: Fab16 (anti-FNIII, YSGR Min clone 16) (synthetic); assay: filter; details: filter binding / dot blot assay
[2] = system: Fab30 (anti-VCIII, YSGR Min clone 30) (synthetic); assay: filter; details: filter binding / dot blot assay; Example 2 names the V. cholerae target VCLD1
[3] = system: Fab29 (anti-VCIII, YSGR Min clone 29) (synthetic); assay: filter; details: filter binding / dot blot assay; Example 2 names the V. cholerae target VCLD1
[4] = system: Fab8 (anti-P4-P6, YSGR Min clone 8) (synthetic); assay: FP; details: filter binding / dot blot assay
[5] = system: Fab11 (anti-P4-P6, YSGR Min clone 11) (synthetic); assay: filter; details: filter binding / dot blot assay
[6] = system: Fab1 (anti-tRNAiMet, YSGRX clone 1), phage displayed (synthetic); assay: competition; details: competitive phage ELISA; selection RNA carried a 29 nt 3' tag
[7] = system: T1, Fab7 (anti-tRNAiMet) (synthetic); assay: filter; details: soluble Fab; discrete complex also in native gel
T1 sequence: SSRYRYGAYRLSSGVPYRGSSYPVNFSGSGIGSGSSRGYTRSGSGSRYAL

Substance: FNIII glycine riboswitch
- pKd [1]: 6.80

Substance: VCIII glycine riboswitch
- pKd [2]: 7.66
- pKd [3]: 7.42

Substance: P4-P6 domain of Tetrahymena group I intron
- pKd [4]: 7.28
- pKd [5]: 7.70

Substance: human initiator tRNAiMet transcript
- pKd [6]: 7.28
- pKd [7]: 7.23

Reference: US20140288277
